Entries after “also recorded” stand apart in the source; their conditions may differ. Marks after values point to notes of the source that are not given here.
Assays:
[1] = tested on: IGF2^1-67-induced hypoglycaemia; assay: IGF2-induced hypoglycaemia mouse model; assay type: in vivo
Source text: All animal experiments were approved by the animal use ethical committee of Oxford University and fully complied with UK Home Office guidelines (PPL 30/2695). Wild-type C57BL/6J and 129S2 mice were used throughout. Mice were anaesthetised using a rising concentration of isoflurane in oxygenated air and maintained using 2% isoflurane with 2 L min^−1 oxygen. Blood glucose measurements were taken using an Advantage diabetic glucose meter (Roche Diagnostics, Burgess Hill, UK). In order to test the direct inhibition of IGF2-induced hypoglycaemia by Fc-domain 11^AB5, blood glucose levels were allowed to normalise for 30 min prior to taking a baseline blood glucose reading, then either 1 mg kg^−1 IGF2 only (R&D systems), […], Fc-domain 11^RHH, or Fc-domain 11^I1572A ([…]) was injected. Blood glucose measurements were taken every 10 min for the following hour. For the Fc-domain 11^AB5 mouse preloading experiment, 11.7 mg kg^−1 Fc-domain 11^AB5 or PBS, as negative control, was injected immediately after induction of anaesthesia, 30 mins later a baseline blood glucose reading was taken and 1 mg kg^−1 IGF2 ([…]) was injected, readings were then taken every 10 min for the following hour. For the mouse IGF2 preloading experiment, 1 mg kg^−1 IGF2 was injected immediately after induction of anaesthesia, 30 min later a baseline blood glucose reading was taken and either 11.7 mg kg^−1 Fc-domain 11^AB5 ([…]) or PBS was injected, readings were then taken every 10 min for the following hour.

Hep3B cells = assay: Cell proliferation assay (EdU incorporation); assay type: cell-based, human; conditions: relative to OSI-06
Description: EdU incorporation was used to measure cell proliferation (Invitrogen, C10338). Briefly, cells were plated at a density of 2×10^5 cells/well in 6-well plates and cultured in serum free media. After 24 hr of serum starvation, PBS (black) and 1.5 μM Fc-domain 11^I1572 (grey) as negative controls, 0.5 and 1.5 μM Fc-domain 11^AB5 (orange), 1 μM OSI-906 (purple) and 0.1 and 0.5 μM doxycycline (green) as positive controls were added to the different wells and cells were further cultured. After 48 hr, 10 μM EdU was added for 3 hr and cells were then washed and trypsinised, followed by fixation in 4% PFA and permeabilisation in TBS/5% Triton. The Alexa 555 dye was then attached to the EdU molecules by click chemistry following the manufacturer's instructions and the % of EdU incorporation under different conditions was then analysed by flow cytometry.

Huh7 cells = assay: Apoptosis in hepatocellular carcinoma cells; assay type: cell-based, human
IGF2^1-67 = biological target: T1, IGF2^1-67 (Homo sapiens, UniProt P01344); assay: SPR of IGF forms on Fc-domain 11 proteins immobilised by antibody capture; assay type: binding; conditions: HBS-EP pH 7.4
T1 construct: Recombinant mature (IGF2^1-67 [7.5 kDa]
T1 sequence (P01344 25-91): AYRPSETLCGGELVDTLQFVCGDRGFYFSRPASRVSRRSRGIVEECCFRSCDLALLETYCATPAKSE
Description: (§1) SPR analysis of the interaction of recombinant IGF1 and IGF2 forms with Fc-domain 11 proteins immobilised by antibody capture (CM5 chip containing monoclonal mouse anti-human IgG antibody immobilised by amine coupling). Measurements were carried out at 25° C. in HBS-EP buffer (pH 7.4).
(§2) Final kinetic analysis of mutants by SPR was conducted using a Biacore T200 biosensor at 25° C. in either HBS-EP (10 mM HEPES pH 7.4, 150 mM NaCl, 3 mM EDTA, and 0.005% (v/v) surfactant P20) or MES-EP (20 mM MES pH 6.5, 150 mM NaCl, 3 mM EDTA, and 0.005% (v/v) surfactant P20) at a flow-rate of 40 μL min^−1. […] For the analysis of the Fc-domain 11^AB5 interaction, approximately 50 RU of a biotinylated IGF2:biotinylated ubiquitin mixture (1:8 proportion) was immobilized on the CM5-streptavidin chip. This interaction was also analysed by immobilizing the Fc-domain 11^AB5 and Fc-domain 11^AB5-RHH (or Fc-domain 11^I1572A as control) by Human Antibody Capture (monoclonal mouse anti-human IgG antibody immobilised on a CM5 chip by amine coupling, GE Healthcare) with and without human IgG1 Fc fragment (Bethyl Laboratories, UK) in the control flow cell. Increasing concentrations of IGF2^1-67, proIGF2^1-104, proIGF2^1-156 and IGF1 ranging from 0.125 to 32 nM were injected. T200 BiaEvaluation software (GE Healthcare) was used to fit the resulting curves according to a 1:1 binding model. Steady state affinities were determined using the kinetic data, taking the response average at 5 seconds before injection end and for 5 seconds average. Thermodynamic data was performed across the temperature range of 10° C. to 30° C., van't Hoff and Erying plots generated and ΔH, −TΔS and ΔG values determined as previously described.

IGF2^1-156 = biological target: T2, IGF2^1-156 (Homo sapiens, UniProt P01344); assay: as above; assay type: binding; conditions: for Kinetics koff: HBS-EP pH 7.4; for Kinetics kon: may be inaccurate (mixture of three isoforms)
T2 construct: pro-IGF2^1-156 [17 kDa]
T2 sequence (P01344 25-180): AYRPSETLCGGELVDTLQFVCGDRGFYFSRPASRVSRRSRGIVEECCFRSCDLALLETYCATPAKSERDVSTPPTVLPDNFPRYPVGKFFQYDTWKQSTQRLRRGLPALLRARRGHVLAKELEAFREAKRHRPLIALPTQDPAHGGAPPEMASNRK
Description: as §1, §2

IGF2^1-104 = biological target: T3, IGF2^1-104 (Homo sapiens, UniProt P01344); assay: as above; assay type: binding; conditions: HBS-EP pH 7.4
T3 construct: pro-IGF2 (pro-IGF2^1-104 [11 kDa]
T3 sequence (P01344 25-128): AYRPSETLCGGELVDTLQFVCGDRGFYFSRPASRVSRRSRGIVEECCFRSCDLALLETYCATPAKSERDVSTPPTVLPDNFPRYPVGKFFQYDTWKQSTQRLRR
Description: as §1, §2

Hep 3B2.1-7 cells = assay: In vitro cell viability (CellTiter 96 AQueous); assay type: cell-based, human; conditions: cell line not specified in the sentence (FIG. 10: Hep3B, Huh7)
Description: The human hepatocellular carcinoma cell lines Hep 3B2.1-7 and Huh-7D12 were obtained from the ATCC (HB-8065) and the ECACC (Catalogue number 1042712), respectively. Hep 3B2.1-7 was grown in EMEM (Lonza) supplemented with 10% (v/v) fetal bovine serum, 100 U mL-1 penicillin, 100 μg mL-1 streptomycin, and 2 mM Lglutamine Huh-7D12 was grown in DMEM (Sigma) supplemented with 10% fetal bovine serum, 100 U mL-1 penicillin, 100 μg mL-1 streptomycin, and 2 mM L-glutamine. Cells were plated in 96-well plates at a density of 1-2×10^4 cells/well in serum free medium. After 24 hr, Fc-domain 11^AB5 (orange), Fc-domain 11^I1572A as negative control (grey) or OSI-906 (purple) were added to each well to different final concentrations and the cells were incubated for further 48-72 hr. Cell viability was assayed at 48 and 72 hr after Fc-domain 11^AB5 treatment using the CellTiter 96® AQueous Non-Radioactive Cell Proliferation Assay (Promega). The half maximal inhibitory concentration (IC50) was calculated using graph prism.

[2] = pre-loading, co-injection or post-loading

| Molecule | IGF2-induced hypoglycaemia (blood glucose) ([1]; administered 30 min after 1 mg kg^−1 IGF2^1-67) | IGF2-induced hypoglycaemia (blood glucose) [1, 2] | IGF2-induced hypoglycaemia (blood glucose) ([1]; preloading 30 min before 1 mg kg^−1 IGF2^1-67) | IGF2-induced hypoglycaemia (blood glucose) ([1]; premixed / co-injected with 1 mg kg^−1 IGF2^1-67, molar ratio 1:1) | Proliferation (Hep3B cells) | Apoptosis (Huh7 cells) | Kinetics koff (IGF2^1-67) | Kinetics kon (IGF2^1-67) | Kinetics koff (IGF2^1-156) | Kinetics kon (IGF2^1-156) | Kinetics koff (IGF2^1-104) | Kinetics kon (IGF2^1-104) | Inhibitory effect on cell lines (Hep 3B2.1-7 cells) |
| --- | --- | --- | --- | --- | --- | --- | --- | --- | --- | --- | --- | --- | --- |
| Fc-domain 11^AB5: human IgG1 Fc-fusion of domain 11^AB5 (protein, left off: a dimerising Fc or GST, human IgG1 Fc-fusion of domain 11^AB5) NEHDDCQVTNPSTGHLFDLSSLSGRAGFTAAYAKGWGVYMSICGENENCPPGVGACFGQTRISVGKANKRLRYVDQVLQLVYKDGSPCPSKSGLSYKSVISFVCRPEAGPTNRPMLISLDKQTCTLFFSWHTPLACEQAT | can reverse IGF2-induced hypoglycaemia | significant abrogation of the hypoglycaemic effects | protects against IGF2-induced hypoglycaemia | abrogation; also recorded: prevents IGF2-induced hypoglycaemia | inhibited | promoted | 0.025 s⁻¹ | 6.47e+06 M⁻¹ s⁻¹ | 0.0009 s⁻¹ | 4.19* ×10^6 M^−1s^−1 | 0.0069 s⁻¹ | 1.287e+07 M⁻¹ s⁻¹ |  |
| Fc-domain 11^I1572A: low binder Fc-domain 11 fusion with I1572A, non-IGF2 binding control (protein, left off: a dimerising Fc or GST) NEHDDCQVTNPSTGHLFDLSSLSGRAGFTAAYSEKGLVYMSICGENENCPPGVGACFGQTRASVGKANKRLRYVDQVLQLVYKDGSPCPSKSGLSYKSVISFVCRPEAGPTNRPMLISLDKQTCTLFFSWHTPLACEQAT |  | not detected |  |  |  |  |  |  | 0.0008 s⁻¹ | 0.29* ×10^6 M^−1s^−1 | 0.002 s⁻¹ | 520000 M⁻¹ s⁻¹ | no effect |
